The target in this experiment is MART-126-35/HLA-A2.1 tetramer (human). Description: equilibrium tetramer staining at 0.1-25 nM, flow cytometry, Scatchard plot (KD=1/slope).

Drawing on patent US20080199424A1, this text covers Kd for one substance.

pKd: −log10 of the molar value.

By pKd is commonly meant the negative decadic logarithm of the Kd, by convention in mol/L. A low value points to a high Kd.

“MART-1 TCR native PBMC (T cells obtained by leukapheresis from the MART-1 TCR donor patient)”: the pKd is 8.22 to 8.40.
